According to article PMC12393501, “Recruitment of Mre11 to recombination sites during meiosis” (Research Square, 2025):

B1: HisSUMO-tagged Mer2 [S. cerevisiae] / MBP-tagged Mre11-C49 peptide [S. cerevisiae] (parent)
chain 1: SYGLLNGRKTKTKTRPAASTKTASRRGKGRASRTPKTDILGSLLAKKRK
chain 2: MVARGRTDEISTDVSEANSEHSLMITETSSPFRSIFSHSGKVANAGALEESDKQILEWAGKLELESMELRENSDKLIKVLNENSKTLCKSLNKFNQLLEQDAATNGNVKTLIKDLASQIENQLDKVSTAMLSKGDEKKTKSDSSYRQVLVEEISRYNSKITRHVTNKQHETEKSMRCTQEMLFNVGSQLEDVHKVLLSLSKDMHSLQTRQTALEMAFREKADHAYDRPDVSLNGTTLLHDMDEAHDKQRKKSVPPPRMMVTRSMKRRRSSSPTLSTSQNHNSEDNDDASHRLKRAARTIIPWEELRPDTLESEL

Variants of: B1
Assay: co-expression Ni-NTA pulldown, anti-MBP immunoblot quantification
Conditions: with MBP-tagged Mre11-C49 peptide [S. cerevisiae]; co-expressed in E. coli; at least seven independent samples; parent: 1; read off a plot
chain 2 MVARGRTDEISTDVSEANSEHSLMITETSSPFRSIFSHSGKVANAGALEASDKAILAWAGALELESMELRENSDKLIKVLNENSKTLCKSLNKFNQLLEQDAATNGNVKTLIKDLASQIENQLDKVSTAMLSKGDEKKTKSDSSYRQVLVEEISRYNSKITRHVTNKQHETEKSMRCTQEMLFNVGSQLEDVHKVLLSLSKDMHSLQTRQTALEMAFREKADHAYDRPDVSLNGTTLLHDMDEAHDKQRKKSVPPPRMMVTRSMKRRRSSSPTLSTSQNHNSEDNDDASHRLKRAARTIIPWEELRPDTLESEL [chain 2 E50A Q54A E57A K61A] showed a ratio to parent of 0.27.
